Data reported in patent US20020098524A1 (published 2002).

What was measured:
human (h)TNF-α [1] = biological target: T1, human (h)TNF-α (human, UniProt P01375 77-233); test: phage display selection on hTNF-α-coated tube, PCR of phage still bound after acid wash
T1 construct: Bought purified protein; also called TNF-alpha; Tumor Necrosis Factor α
Procedure: A thin-walled PCR tube was coated with the target human (h)TNF-α (BioSource International; Camarillo, Calif.) by incubating 100 μl of 0.5 mg/ml purified TNF-α in PBS overnight at 4° C. in the PCR tube. Excess unbound TNF-α was removed, and the tube was coated overnight at 4° C. with 100 μl of SuperBlock™ blocking buffer (Pierce: Rockford, Ill.) in Tris buffered saline (TBS). The anti-target (SuperBlock™ blocking buffer) was prepared in separate PCR tubes coated overnight at 4° C. with 100 μl of SuperBlock™.
Unbound phage were removed by washing the tube 5 times with 150 μl PBS containing 0.1% Tween-20 at room temperature. Low affinity binders were washed away by incubating with 60 μl of 0.2 M Glycine (pH 2.2) for 6 minutes followed by neutralization with 9 μl M Tris-Cl (pH 9.1). The acid washed population was retained for further analysis. The tube was then washed again 3 times with 150 μl of PBS.
This was due to too much template (i.e. phage) in the PCR reaction, and can be alleviated by decreasing the phage concentration or by decreasing the number of PCR cycles (FIG. 3). To decrease the amount of the 500-700 bp diffuse band, the PCR product was diluted appropriately for subsequent PCR reactions from this starting material to generate more products for sub-cloning purposes.

human (h)TNF-α [2] = biological target: T1, human (h)TNF-α; test: IAsys biosensor, dissociation in 10 mM HEPES/0.05% Tween
Procedure: The binding and dissociation of phage clone A1, amino acid sequence: RYWQDIP; Table 1, (SEQ ID NO: 3) to TNF-α was monitored using an lAsys AutoPlus Biosensor following the Labsystems Affinity Sensors lAsys Protocol 2.4 ‘Immobilization to Protein Layer: Thiol coupling to avidin’ (Thermo BioAnalysis Corp. Franklin, Mass.). Two cuvettes were first coated with avidin and one (the control) was then blocked with biotin. This was followed by activation of the lysine groups. A 15 μl aliquot of a 1 mg/ml (h)TNF-α solution was added to each cuvette. […] After blocking and washing, phage clone A1, RYWQDIP (SEQ ID NO: 3) was added to give a final titer of 5×10¹¹ pfu/ml.
The dissociation of the phage from the TNF-α is very slow with the dissociation constant estimated as koff<10⁻⁴ sec⁻¹ (10 mM HEPES/0.05% Tween). Washing with a 1×buffer concentrate (at the 70 min time point) only removed a small portion of the phage.

T1 sequence (P01375 77-233 limits assumed): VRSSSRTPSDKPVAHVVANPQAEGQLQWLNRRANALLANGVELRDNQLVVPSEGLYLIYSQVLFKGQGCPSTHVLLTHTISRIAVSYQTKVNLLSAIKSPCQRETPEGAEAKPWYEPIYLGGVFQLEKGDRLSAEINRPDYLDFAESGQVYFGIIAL

| Binder | binding result (human (h)TNF-α [1]) | koff (human (h)TNF-α [2]) [s⁻¹] |
| --- | --- | --- |
| ASTVGGL [T6 (ASTVGGL)] | binds | – |
| LSQPIPI [T14 (LSQPIPI)] | binds | – |
| LTQSFSS [T9 (LTQSFSS)] | binds | – |
| DMIMVSI [T3 (DMIMVSI)] | binds | – |
| WTPKPTQ [T4 (WTPKPTQ)] | binds | – |
| LPILTQT [T12 (LPILTQT)] | binds | – |
| APEPILA [T2 (APEPILA)] | binds | – |
| RYWQDIP (also called T1; phage peptide clone A1) [phage clone A1, amino acid sequence RYWQDIP] | – | < 0.0001 |
| TMLPYRP [T7 (TMLPYRP)] | binds | – |
| QPLRKLP [T15 (QPLRKLP)] | binds | – |
| SILPVSH [T13 (SILPVSH)] | binds | – |
| ATFPNQS [T5 (ATFPNQS)] | binds | – |
| GQTHFHV [T11 (GQTHFHV)] | binds | – |
| AWHSPSV [T8 (AWHSPSV)] | binds | – |
| THKNTLR [T10 (THKNTLR)] | binds | – |
